This is an account of results in PMC12510028, “A biophysical and molecular characterization of the interaction between the Alzheimer risk factor BIN1 and the neuronal scaffold protein p140Cap” (The Journal of Biological Chemistry, 2025).

One test has as its target T1, BIN1 SH3 domain (Homo sapiens, UniProt O00499).
T1 construct: His (N); made in house; host or cells: E. coli BL21 (DE3)
T1 sequence (O00499 520-593 limits assumed): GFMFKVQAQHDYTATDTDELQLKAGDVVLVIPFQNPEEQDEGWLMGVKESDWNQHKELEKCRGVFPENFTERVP
Nature of the test: SPR equilibrium affinity of peptides for biotinylated BIN1-SH3 domain. Type of test: binding. To be noted: for Kd: SPR Biacore S200, Biotin CAPture chip, Avi-BIN1-SH3 immobilised as ligand, peptide as analyte, reference cell CTX-M-14 subtracted, 25 °C, PBS-P+, steady-state 1:1 fit, mean ± SD of three technical replicates, p140Cap peptides tested 0.6–75 μM; for binding to BIN1-SH3 in words: SPR, tested analyte concentrations 0.6–75 μM. As for the experimental part: We undertook a candidate approach to identify biologically relevant neuronal proteins that interact with BIN1’s SH3 domain (Fig. 1A). First, we referenced published KD calculations for several BIN1 SH3 domain ligands ([45]), setting a KD cut-off at <10 μM for our study. Then, we obtained a published index of potential protein interactors from a study that computationally predicted the top 100 peptide binding partners for each of 70 human SH3 domains, generated by SH3PepInt, an alignment-free, graph kernel-based tool ([46]). We curated the predicted BIN1 SH3-binding proteins using a set of criteria to ensure: 1) neuronal expression, 2) subcellular localization at the synapse, and 3) molecular functions relevant to neuronal BIN1 in neurotransmitter vesicle dynamics ([25]). We then utilized available protein structures in the Protein Data Bank or those predicted by AlphaFold to confirm the accessibility of each putative SH3-binding site within the full-length protein, prioritizing peptides known to adopt the left-handed polyproline-II helix. From these analyses, we nominated 10 proteins for an initial screening using 14-mer peptides in surface plasmon resonance (SPR) analysis (Fig. 1B). The purified Avi-tagged BIN1 SH3 domain was immobilized as the ligand on flow cell 2, while a nonbinding control protein was immobilized on flow cell 1 (Fig. S1). Subsequently, each peptide was injected in solution over the sensor surface as the analyte (Fig. 1B). To correct for nonspecific binding, response units from flow cell 1 were subtracted from those of flow cell 2 to determine the KD.
The ^1033KPSKSPPPPPPRRS^1046 p140Cap peptide harbors three canonical PRMs: class I, ^1036KSPPPPP^1042; class IIa, ^1038PPPPPRR^1045; and class IIb, ^1037PPPPPPR^1044 (Fig. 2A). […] Thus, we used SPR in combination with alanine-scanning mutagenesis to determine which of the three class motifs on p140Cap mediates binding to BIN1’s SH3 domain. We synthesized 14-mer peptides with alanine substitutions at either the basic residues alone or in combination with the corresponding prolines for all three canonical PRM classes. We also synthesized 7-mer peptides containing the native core motif for cross-referencing (Fig. 2B). […] We reasoned that alanine substitution of residues not involved in BIN1-SH3 binding would produce similar, if not identical, KDs to the native 14-mer peptide. […] Thus, we would be able to identify the precise motif responsible for facilitating the BIN1–p140Cap interaction.
All experiments were conducted using the Biacore S200 (GE Healthcare), equipped with a series S Biotin Capture chip (Cytiva Life Sciences) at 25 °C in 1X PBS-P + [0.2 M phosphate buffer with 27 mM KCl, 1.37 M NaCl, and 0.5% surfactant P20 (Tween 20)] running buffer. The chip surface was first conditioned with three 1-min injections of regeneration solution (3:1 8 M guanidine-HCl: 1 M NaOH) immediately after docking. Biotin CAPture reagent (50 μg/ml in HBS-EP buffer [0.01 M Hepes (pH 7.4), 0.15 M NaCl, 3 mM EDTA, 0.005% surfactant P20]), 3.4 ml) was immobilized on the chip surface at a flow rate of 2 μl/min for 5 min prior to ligand immobilization. Affinity run assays were conducted by immobilizing 50 μg/ml Avi-BSH3 (12 kDa, >90% pure based on SDS-PAGE) diluted in 1X PBS-P+ running buffer at 5 ul/min for 60 s on a streptavidin-coated matrix on flow cell 2. Additionally, 50 μg/ml Avi-tagged nonbinding protein (CTX-M-14 β-lactamase, 30 kDa, >90% pure based on SDS-PAGE) diluted in 1X PBS-P+ running buffer was immobilized at 5 μl/min for 60 s on flow cell 1 to serve as a reference surface for subtraction of bulk refractive index background. To collect affinity data, the analytes were diluted in running buffer and injected over the two flow cells in serial dilution at a flow rate of 30 μl/min. The complexes were allowed to associate and dissociate for 30 s and 300 s, respectively. The surfaces were then regenerated with three 60 s injections of regeneration solution. […]
In general terms: In SPR one partner is held on a chip, and binding of the other changes the refractive index at the surface.

The target of test [1] is Avi-tagged BIN1 SH3 domain (human) (UniProt O00499). The experiment in a line: SPR; Biacore S200, Biotin CAPture chip; biotinylated Avi-BIN1-SH3 captured on flow cell 2, Avi-tagged CTX-M-14 β-lactamase on reference flow cell 1; peptides injected as analytes at 30 μl/min; 25 °C, 1X PBS-P+; steady-state analysis, 1:1 model.
A further test deals with nsP3 (Chikungunya virus) (UniProt Q8JUX6). To be noted: cited from earlier work.
Test [2] has as its target GST-tagged BIN1-SH3 domain MutK (K30R, rs138047593) (human). The experiment in a line: pull-down; 25 μg GST or GST-BSH3 (WT or mutant) on glutathione-Sepharose with 0.5 mg of 1% Triton X-100 soluble mouse brain homogenate, 2 h at room temperature; washes with 50 mM KCl, 150 mM NaCl, 1.5% IGEPAL; immunoblot for p140Cap and total tau. (Immunoblotting shows a protein as a band on a membrane.)

In test [3] the target is T2, Avi-tagged BIN1 SH3 domain (human, UniProt O00499 520-593, biotin within the 15 amino acid AviTag peptide (enzymatic, in E. coli)).
T2 construct: human BIN1 (bridging integrator 1), the C-terminal 81 amino acids that encompass the SH3 domain; 12 kDa by the methods; vector pAviBir, insert between BamHI and NotI; also called Avi-BSH3; AviBir-Bin1 SH3; source: E. coli BL21 (DE3), purified (HisTrap HP, Sephacryl S-200 gel filtration); not shown: AviTag, N-terminal, kept
T2 sequence (looked up): T1 sequence (O00499 520-593 limits assumed)
Nature of the test: SPR; Biacore S200, Biotin CAPture chip; biotinylated Avi-BIN1-SH3 captured on flow cell 2, Avi-tagged CTX-M-14 β-lactamase on reference flow cell 1; peptides injected as analytes at 30 μl/min; 25 °C, 1X PBS-P+; steady-state analysis, 1:1 model. The conditions noted are these: both partners purified.

Test [4] concerns the target T3, Avi-tagged BIN1 SH3 domain (human, UniProt O00499 520-593, biotin within the 15 amino acid AviTag peptide (enzymatic, in E. coli)).
T3 chain: T1 sequence (O00499 520-593 limits assumed)
Nature of the test: SPR.

The target of test [5] is T3, Avi-tagged BIN1 SH3 domain. The experiment in a line: SPR.

The Kd is the free concentration of one partner at which half of the binding sites on the other are occupied at equilibrium, for simple one-to-one binding. Take Ac-KPSKSPAPPAPARS-NH2 [KPSKSPAPPAPARS]: the Kd on BIN1 SH3 domain is above 75 µM.

In test [1], “p140Cap 14-mer peptide 1033-1046 with alanine substitution of the C-terminal arginine (class IIa) (from UniProt Q9C0H9 1033-1046)” showed a Kd of 26.3 µM.

With “Ac-PPPPPPR-NH2 (N-terminus and C-terminus assumed) [PPPPPPR]”, the “binding to BIN1-SH3 in words” value on BIN1 SH3 domain is “outside the range of tested analyte concentrations”.

As for Ac-ERSLVGFGPPVPAK-NH2 [p140Cap583-596], at BIN1 SH3 domain, the Kd is above 75 µM.

For BIN1 SH3 (from UniProt O00499), the Kd in the test with nsP3 (Chikungunya virus) is 0.024 µM.

As for “Ac-KSPPPPP-NH2 (N-terminus and C-terminus assumed) [KSPPPPP]”, at BIN1 SH3 domain, the “binding to BIN1-SH3 in words” value was “no binding within the range of tested analyte concentrations”.

On to Ac-KPSKSPPAPPARAS-NH2 [KPSKSPPAPPARAS], for which, on BIN1 SH3 domain, the Kd was above 75 µM.

Molecule “p140Cap 14-mer peptide 1033-1046 with alanine substitution of the class I lysine and its corresponding prolines (from UniProt Q9C0H9 1033-1046)” yielded a dissociation constant (Kd) in test [1] of 21 µM.

In test [2], “tau from mouse brain (from UniProt P10637-2 1-430) (natural protein)” registered a fold less bound than to WT BIN1-SH3 of 2 fold.

For the molecule Ac-GYGFRLPPSSPQKL-NH2 [p140Cap498-512], the Kd at BIN1 SH3 domain was above 75 µM.

“p140Cap 14-mer peptide 1033-1046 with alanine substitution of the class I lysine (from UniProt Q9C0H9 1033-1046)” yielded a Kd in test [1] of 6.32 µM.

B1: tau 13-mer peptide 154-166 (peptide)
peptide: TPSLPTPPTREPK
notes: tau, proline-rich domain, class II PRM extended at both ends; The methods tell acetylation and amination of the ends only for the 14-residue peptides; also called tau_(154-166); 13-mer tau peptide; source: synthetic peptide
For the molecule B1, binding in test [3] was characterised by a dissociation constant (Kd) of 484 µM.

B2: p140Cap 14-mer peptide 583-596 (peptide)
peptide: Ac-ERSLVGFGPPVPAK-NH2
Regarding B2, in test [4], the Kd was above 75 µM.

B3: p140Cap native class I 7-mer peptide (peptide)
peptide: KSPPPPP
B3 yielded a Kd in test [5] above 75 µM.

B4: tau 6-mer peptide 158-163 (peptide)
peptide: PTPPTR
notes: tau, proline-rich domain, minimum consensus class II PRM; The methods tell acetylation and amination of the ends only for the 14-residue peptides; also called tau_(158-163); 6-mer tau peptide; source: synthetic peptide
As for B4, the affinity in test [3], expressed as Kd, was 288 µM.

B5: p140Cap native class IIb 7-mer peptide (peptide)
peptide: PPPPPPR
In the case of B5, the Kd in test [5] was above 75 µM.

B6: p140Cap 14-mer peptide 1033-1046 (peptide)
peptide: Ac-KPSKSPPPPPPRRS-NH2
notes: also called p140Cap_(1033-1046); native 14-mer peptide; source: synthetic peptide (GenScript, reversed-phase HPLC, ≥95% purity)
Molecule B6 had a Kd in test [3] of 7.7 µM.

B7: p140Cap from mouse brain (natural protein)
chain: MQPWQCLRRFALAWWERTAEGRARSPREEVGPRDPGGRGEPDPERSSPPMLSADDAEYPREYRTLGGGGGGGSGGRRFSNVGLVHTSERRHTVIAAQSLEALSGLQKADADRKRDAFMDHLKSKYPQHALALRGQQDRMREQVGGWTVDPVCLLSSLCSHLHGDSTPSGAGQPAQQPNYWSFKTRSSRHTQGAQPGLADQAAKLSYASAESLETMSEAELPLGFSRMNRFRQSLPLSRSASQTKLRSPGVLFLQFGEETRRVHITHEVSSLDTLHALIAHMFPQKLTMGMLKSPNTAILIKDEARNVFYELEDVRDIQDRSIIKIYRKEPLYAAFPGSHLTNGDLRREMVYASRESSPTRRLNNLSPASHLASSSPPPGLPSGLPSGLPSGSPSRSRLSYAGGRPPSYAGSPVHHAAERLGGAPTGQGVSPSPSAILERRDVKPDEDLAGKAGGMVLVKGEGLYADPYGLLHEGRLSLAAAAETHSHTRARAACTSGVPCALSAPTPLPRCSPTWRTRCTRRALAALYGDGYGFRLPPSSPQKLADVSAPSGGPPPPHSPYSGPPSRGSPVRQSFRKDSGSSSVFAESPGGKARSTGSASTAGAPPSELFPGPGERSLVGFGPPVPAKDTETRERMEAMEKQIASLTGLVQSALLRGSEPETPSEKVEGSNGAATPSAPVCGSGSKSSGATPVSGPPPPSASSTPAGQPTAVSRLQMQLHLRGLQNSASDLRGQLQQLRNVQLQNQESVRALLKPTEADVSMRVSEAARRQEDPLQRQRTLVEEERLRYLNDEELITQQLNDLEKSVEKIQRDVAHNHRLMPGPELEEKALVLKQLGETLTELKAHFPGLQSKMRVVLRVEVEAVKFLKEEPQRLDGLLKRCRGVTDTLAQIRRQVDEGMWPPPNNLLNQSPKKVAAETDFSKGLDFEIPPPSPPLNLHELSGPAEGTPLTPKSTNPTKCLDASSKRNTDKAVSVEAAERDWEEKRAALTQYSAKDINRLLEETQAELLKAIPDLDCASKTHPGPAPTPDHKPPKAPHGQKAAPRTEPSGRRGSDELTVPRYRTEKPSKSPPPPPPRRSFPSSHGLTTTRTGEVVVTSKKDSVFIKKAESEELEVQKPQVKLRRAVSEVVRPASTPPIMASAIKDEDDEERIIAELESGGSSVPPMKVVTPGASRLKAAQGPAGSPDKGKHGKQRTEYMRIQAQQQATKPSKEVSGPNETSSPGSEKPSGSRTSIPVLTSFGARNSSISF
Take B7: in test [2], the fold less bound than to WT BIN1-SH3 was 2.6 fold.

B8: p140Cap native class IIa 7-mer peptide (peptide)
peptide: PPPPPRR
notes: human p140Cap, class IIa PRM of the C-terminal proline-rich domain; source: synthetic peptide
Regarding B8, binding in test [3] was put at a Kd of 31.7 µM.

B9: p140Cap 14-mer peptide 1033-1046 with alanine substitution of the N-terminal arginine (class IIb) (peptide)
chain: Ac-KPSKSPPPPPPARS-NH2
For B9, in test [5], the Kd was above 75 µM.

B10: p140Cap 14-mer peptide 1033-1046 with alanine substitution of the class IIa arginine and its corresponding prolines (peptide)
chain: Ac-KPSKSPPAPPARAS-NH2
Molecule B10 yielded an equilibrium dissociation constant (Kd) in test [3] above 75 µM.

B11: p140Cap 14-mer peptide 498-512 (peptide)
peptide: Ac-GYGFRLPPSSPQKL-NH2
Molecule B11 displayed a Kd in test [4] above 75 µM.
